In paper PMC10493163 one finds dF/F0 of the 1130 nm SWCNT emission peak after 90 min, 10 mg/L data, which are given here for 1 substance.

This test concerns the target angiotensin-converting enzyme 2 (ACE2), noncovalently adsorbed on (GT)6-SWCNTs (human) (UniProt Q9BYF1). In words: other fluorescence titration.
Chain of UniProt Q9BYF1 (Q9BYF1 18-805): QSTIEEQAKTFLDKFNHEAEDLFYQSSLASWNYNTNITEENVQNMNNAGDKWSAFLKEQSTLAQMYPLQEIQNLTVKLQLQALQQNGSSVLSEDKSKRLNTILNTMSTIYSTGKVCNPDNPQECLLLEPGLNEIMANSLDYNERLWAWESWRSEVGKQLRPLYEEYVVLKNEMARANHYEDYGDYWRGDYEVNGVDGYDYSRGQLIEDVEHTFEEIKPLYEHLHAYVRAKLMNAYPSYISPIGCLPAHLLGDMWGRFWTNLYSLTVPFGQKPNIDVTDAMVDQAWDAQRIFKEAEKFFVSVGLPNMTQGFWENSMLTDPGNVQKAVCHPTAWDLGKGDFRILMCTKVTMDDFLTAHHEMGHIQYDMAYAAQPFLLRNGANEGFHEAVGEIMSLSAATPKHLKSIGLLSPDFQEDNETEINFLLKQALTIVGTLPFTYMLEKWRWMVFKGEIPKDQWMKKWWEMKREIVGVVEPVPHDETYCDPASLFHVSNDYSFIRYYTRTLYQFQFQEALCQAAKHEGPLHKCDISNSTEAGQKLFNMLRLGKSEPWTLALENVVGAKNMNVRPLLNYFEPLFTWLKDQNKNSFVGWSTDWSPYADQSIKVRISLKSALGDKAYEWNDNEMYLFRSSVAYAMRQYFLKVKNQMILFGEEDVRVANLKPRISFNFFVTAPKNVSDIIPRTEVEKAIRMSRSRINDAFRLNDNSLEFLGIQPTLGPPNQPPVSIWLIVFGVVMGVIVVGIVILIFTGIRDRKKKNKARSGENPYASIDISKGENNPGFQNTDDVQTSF

Take “SARS-CoV-1 spike protein receptor-binding domain (domain or fragment)”: the dF/F0 of the 1130 nm SWCNT emission peak after 90 min, 10 mg/L stood at 88.4%.
